Experimental data taken from the DeepSol protein solubility set.

test: soluble on expression in E. coli; label from the status in PepcDB or PDB records

Which “soluble on expression in E. coli” value does the source give for “MSNNTKRVGSQTIELKSKPRIIATYSVVGPREGQGPLKEYFDKILQDDCNGCESFEKAESSLMITAIEGVIKKGNVKEEDVDYLFSGDLLNQLTSTNFVAREFKIPFFGVYGACSTMAESLSLSSMIMDGDFAKYAIASTSSHFSSAERQFRFPLEYGCQRKEYSQWTVTGSGAMLLGKSGDYPYVTHVTTGIVKDYGIKDADNMGAAMAPAAVDTIYKHFVDTGRKPEDYDVIATGDLGAVGKKLTEELLKEYGYDISKVYIDCGEKIFDNEKQGTFAGGSGCGCSAVVACGYLYRMLKEKKLKRVLLVSTGALLSSTSALQGESIPGIAHAVAIEYILEHHHHHH” here?
The value was “soluble”.

Which “soluble on expression in E. coli” value does the source give for “SLGWQISRFNRAFDTLCQQGRVGVGRSSGRFKPRVVVAIALDDQQRIVDTLFMKGLTVFARPQKIPAITGMHAGDLQPDVIFPHDPLSQNALSLALKLKRG” here?
The value was “soluble”.

For “MSLVYMAINAVAGTIREFSPKDIESVYRIAQTSLTEYYTQALILDLHREWPESFMVYTVAGSVVGFIVGSKYSRTEARILLFAVDERFRRMGVGSALMDAFLSLCREQNMLSVRLEVRTDNDEAIRFYKKYGFVITAMLPNYYSDSSNAYTMWRIVEGHHHHHH”, which “soluble on expression in E. coli” value is on record?
Its value is “not soluble”.

For “MALVKIVRIETFPLFHRLEKPYGDANGFKRYRTCYLIRIITESGIDGWGECVDWLPALHVGFTKRIIPFLLGKQAGSRLSLVRTIQKWHQRAASAVSMALTEIAAKAADCSVCELWGGRYREEIPVYASFQSYSDSPQWISRSVSNVEAQLKKGFEQIKVKIGGTSFKEDVRHINALQHTAGSSITMILDANQSYDAAAAFKWERYFSEWTNIGWLEEPLPFDQPQDYAMLRSRLSVPVAGGENMKGPAQYVPLLSQRCLDIIQPDVMHVNGIDEFRDCLQLARYFGVRASAHAYDGSLSRLYALFAQACLPPWSKMKNDHIEPIEWDVMENPFTDLVSLQPSKGMVHIPKGKGIGTEINMEIVNRYKWDGSAYEGHHHHHH”, which “soluble on expression in E. coli” value is on record?
Its value is “soluble”.

For “MIITEKRHELILEELSHKDFLTLQELIDRTGCSASTIRRDLSKLQQLGKLQRVHGGAMLKENRMIEANLTEKLATNLDEKKMIAKIAANQINDNECLFIDAGSSTLELIKYIQAKDIIVVTNGLTHVEALLKKGIKTIMLGGQVKENTLATIGSSAMEILRRYCFDKAFIGMNGLDIELGLTTPDEQEALVKQTAMSLANQSFVLIDHSKFNKVYFARVPLLESTTIITSEKALNQESLKEYQQKYHFIGGTLLEHHHHHH”, which “soluble on expression in E. coli” value is on record?
The value was “soluble”.

Which “soluble on expression in E. coli” value does the source give for “PSFSFGGITPVSLQRSSMELISVQAVKHPKLLLYLSERGLQPSDASPFLSEVYYKVSRKCFFALGFPNDAGGWELRNPYFKGCFAPKAITTIKGTDSHKLLLFEGFMDFLSWRKLHPEGQAESIILNSLTLLPKLMPTLHPYPMIESLLDNDEAGDRATKQLIDAGLPVKDMRACYAPYKDINEYLTLAEQRKKILTPHKRGLRR” here?
Its value is “not soluble”.

For “AHHHHHHGSHFIKHFEEELIALSNAPHRGGLTKARGFFFMKVEKNYRGDYKKDCLEFERKNGLRSFVGFMTAVDIEKVMAIKSLGNVEVYLTAGISNPAIAGEEPKPWEPGTINMAIVIDEGLTIGAMANAIMTATEAKTYTLLKLGYNATGTTSDGIGVFARQGNVEWAGTATRLGFEIGKAVREALEESIKKWEKIKSL”, which “soluble on expression in E. coli” value is on record?
The value was “soluble”.

With “MSETIFGKILTGEIPSFKVYEDDYVYAFLDISQVTKGHTLLIPKKASANIFETDEETMKHIGAALPKVANAIKRAFNPDGLNIIQNNGEFADQSVFHIHFHLIPRYENDIDGFGYKWETHEDILDNDAKQQIAEQIQAQF” as the sequence, how does the “soluble on expression in E. coli” value read?
Its value is “not soluble”.

Which “soluble on expression in E. coli” value does the source give for “MAHHHHHHMSSTASPNAALLAEINDLKVKLAEKEALLQPEGVVSKKSKKKSQANMIEKEPVQGCRDFPPEDMRVRRHLFGVFHETARKFGFEEYDAPVLESEELYIRKAGEEITDQMFNFVTKGGHRVTLRPEMTPSLVRLQLAKGRSLLLPAKWYSIPQCWRYEAISRGRRREHYQWNMDIVGVKSVAAEVELVCAACAAMESLGLTAQDVGVKVNSRKLLQCALAGAGVPDSLFAPVCVIVDKMEKLPEEQIRAELEDLALDGQQADDIIRTLSLRSVDDFDKNLFDKNGALSELAEFFSQMQMYGYGDWIQFDASVVRGLAYYTGIVFEAFDRSGEFRAIYGGGRYDNLFTLYGSPQPISCVGFGFGDCVIIELLKKKKLINSLPHKVDDVVIPFNESQRGTALKVLKQLRDKGRSADIIMDSKKVAQTFSYADRIGADRAVLIAPDETEKGMARVKMLREGQRGEDDRGDLVPFEDL” here?
The value was “soluble”.

Which “soluble on expression in E. coli” value does the source give for “MKKSLDEHAERFSDHADAYDEDQDSAAYRACVNFVVDHAAPESDDVVLDLGTGTGAIAFALASDAAEIIGRDISDGMLEKAREKADGRGVENVSFGDGRFRAPNVDRPVDIVTSNFAMHHLGDDEKREAIDTIADLGPRRIVLGDVMLFGDDDPDAPFYSPEVDDPATVGVLADAFTDAGYALTAVEMVTEQAGVLVAERVKSDLEHHHHHH” here?
The value was “soluble”.

With “MGHHHHHHSHMLAQPEPLVWVSKWVDYSNKFGFGYQLSSRRVAVLFNDGTHMALSANRKTVHYNPTSTKHFSFSVGAVPRALQPQLGILRYFASYMEQHLMKGGDLPSVEEVEVPAPPLLLQWVKTDQALLMLFSDGTVQVNFYGDHTKLILSGWEPLLVTFVARNRSACTYLASHLRQLGCSPDLRQRLRYALRLLRDRSPA” as the sequence, how does the “soluble on expression in E. coli” value read?
The value was “not soluble”.

With “MHKPCAVIPVYNHETAVPAVVEVLLARGLPCVLVDDASSPQCAAVLEQLAGLDQVFLIRLAINQGKGGAVMAGLREAAQLGFSHALQVDADGQHDLTDVDNFIQHSQAHPEALVCGYPQYDASVPKGRLYARYLTHVWVWINSLSLQIPDSMCGFRVYPLPPTLALLDSVQLGRRMDFDPEILVRLAWRNQPMRWLPTRVHYPQDGLSHFRLFHDNALISKMHAKLFFGMLARLPLILWRRWRPLEHHHHHH” as the sequence, how does the “soluble on expression in E. coli” value read?
Its value is “not soluble”.

For “MLSGTLFHKDVSIYSLFEELADKLNQKIEKRERLVKASRDVTYQSKKAIYLLHRAADEDLFSICSSAKEQLENIRQLICKLLLPELSAEEYFRFHSVFTIALQEYTEARLFLSYLSEGRALTLDEINAEISQQWQSLLENSEEARIY”, which “soluble on expression in E. coli” value is on record?
The value was “soluble”.

For “MTIKNVICDIDGVLMHDNVAVPGAAEFLHGIMDKGLPLVLLTNYPSQTGQDLANRFATAGVDVPDSVFYTSAMATADFLRRQEGKKAYVVGEGALIHELYKAGFTITDVNPDFVIVGETRSYNWDMMHKAAYFVANGARFIATNPDTHGRGFYPACGALCAGIEKISGRKPFYVGKPSPWIIRAALNKMQAHSEETVIVGDNLRTDILAGFQAGLETILVLSGVSSLDDIDSMPFRPSWIYPSVAEIDVILEHHHHHH”, which “soluble on expression in E. coli” value is on record?
Its value is “not soluble”.

For “MNGKQRMVEQSKQWLSEALIELMKTKDYQDISITEIAQKAELSRKTFYHSFKNKEAVINYLCDQLFDQYFQKLVKQEPQIGEAMLNTTFDIFLNFWWQQRSIIRLLIQQGLFDHMNEIWQKKAVPRYNQFAAPWHVKGTPKQVAYVMAFQLGGFTNILRLWLGQDSPEAPEKIKDLMLLAARQLADSLNPQKN”, which “soluble on expression in E. coli” value is on record?
Its value is “not soluble”.

For “MSLAEVTVVNFGGANGDAQKAAFNKPFEAQTGNKVTAVEYNGEQAKIKAMVEAKHVNWDVVEVESGDIGRGCDEGLFEKLDWSKIAKKADLVPEAPHTCGVGFFVWSTALAYNADKLKAAPSGWADFWDVKKFPGKRGMRKGARYNLEFALMADGVPVKDVYKVLATKDGQNRAFKKLDQLKPYIQWWEAGAQPPQFLVAGDVVMSTAFNGRIDAAQREGKNLKVVWNGSIYDLDYWAIPKGTPNKALAEQYIAYTLSQKAQQEYAKHIAYGPANLAAIKALDAKTQANLPNSPENGKSAVLQNLQFWTDHGDELEQRFASWASKEGHHHHHH”, which “soluble on expression in E. coli” value is on record?
The value was “soluble”.
